Results from paper PMC11633176.
Like-named read-outs stand apart in the source and are kept apart here.

Columns and labels:
Assay in all cases: ITC; aliquots of HasBCTD variants (80-200 μM) injected into the cell containing HasR wild type or mutant proteins (4-15 μM); 25°C; 20 mM sodium phosphate, pH 7, 0.08% Zwittergent 3-14; fit to a model with one set of sites
[1] = target: HasR_(ΔNterL1) (HasR_(ΔNter) with loop L1 P232GKE replaced by ATSA) (Serratia marcescens) (UniProt Q79AD2)
[2] = target: HasR wild type (outer membrane heme transporter, TonB-dependent transporter) (Serratia marcescens)
[3] = target: HasR_(ΔNter) (HasR without the signaling domain, linker and TonB-box) (Serratia marcescens) (UniProt Q79AD2)
[4] = target: HasR_(ΔNterL10short) (HasR_(ΔNter) with loop L10 R774AFDRKLD replaced by ATSA) (Serratia marcescens) (UniProt Q79AD2)
[5] = target: HasR_(ΔNterL1) (HasR_(ΔNter) with loop L1 P232GKE replaced by ATSA) (Serratia marcescens) (UniProt Q79AD2); remark: listed apart in the source
[6] = target: HasR_(ΔNter) (HasR without the signaling domain, linker and TonB-box) (Serratia marcescens) (UniProt Q79AD2); remark: listed apart in the source

Substance “HasBCTD (periplasmic C-terminal domain of the TonB-like protein HasB), wild type (domain or fragment)” has a Ka [1] of 3.03e+06 M⁻¹, a dH [1] of -9.2 kcal/mol and a stoichiometry N [1] of 1.1. For the same substance, the Ka [2] was 7.5e+07 M⁻¹, the dH [2] was -19.1 kcal/mol and the stoichiometry N [2] was 1.03. The Ka [3] was 2.3e+06 M⁻¹, the dH [3] was -11.1 kcal/mol and the stoichiometry N [3] was 1.1. The Ka [4] was 1.45e+08 M⁻¹, the dH [4] was -2.9 kcal/mol and the stoichiometry N [4] was 0.98. The dH [5] was 9.2 kcal/mol and the dH [6] was 11.1 kcal/mol.
